How the values were obtained:
[1] = target: T1, SifR (SpSifR, SPD_1448) (Streptococcus pneumoniae, UniProt A0A0H2ZNG7); experiment: LC-ESI-MS and tandem LC-MS/MS adduct; fluorescence anisotropy DNA release; type: binding; conditions: covalent at C102, slower than BQ, mainly monoadduct; 20-fold excess, 1 h, pH 7.5
T1 construct: pHis.parallel1, E. coli BL21(DE3); His6 tag removed with TEV protease; homodimer; about 16 kDa protomer (BQ2-SifR expected 16,227 Da)

[2] = target: T2, YhdA (SpYhdA, SPD_1375) (Streptococcus pneumoniae, UniProt A0A0H2ZRU6); experiment: ferric reductase, ferrozine capture at […] nm; type: biochemical; conditions: 10 uM FMN, 100 uM Fe(III)-NTA, 100 uM NADH or NADPH, pH 7.5, 25 C
T2 construct: pHis.parallel1, E. coli BL21(DE3); His6 tag removed with TEV protease

[3] = target: T3, CatE (SpCatE, SPD_0072) (Streptococcus pneumoniae, UniProt A0A0H2ZQ49); experiment: UV-Vis and MS of ring-cleavage product; type: biochemical; conditions: 5 uM Fe(II)-CatE, 100 uM substrate, ambient O2, pH 7.4, room temperature
T3 construct: pHis.parallel1, E. coli BL21(DE3); His6 tag removed with TEV protease; Fe(II)-reconstituted

[4] = target: T3, CatE (SpCatE, SPD_0072); experiment: UV-Vis at […] nm and MS of ring-cleavage product; type: biochemical; conditions: 5 uM Fe(II)-CatE, 100 uM substrate, ambient O2, pH 7.4, room temperature
[5] = target: Streptococcus pneumoniae SifR (streptococcal IscR-like family transcriptional repressor), WT (Streptococcus pneumoniae D39); experiment: SEC
[6] = target: Streptococcus pneumoniae SifR C84S (Streptococcus pneumoniae D39); experiment: SEC
[7] = target: Streptococcus pneumoniae SifR C84S/C102S (Streptococcus pneumoniae D39); experiment: SEC
[8] = target: Streptococcus pneumoniae SifR C102S (Streptococcus pneumoniae D39); experiment: SEC
[9] = target: T4, SifR WT (Streptococcus pneumoniae D39, UniProt A0A0H2ZNG7 1-145); experiment: fluorescence anisotropy competition; reduced, 2 mM TCEP; competitor of F-catE; 25 mM Tris-HCl, 150 mM NaCl, 2 mM EDTA, 2 mM TCEP, pH 7.5, 25 C, ~10 nM labeled DNA (Fig S8: 50 mM Tris-HCl, 150 mM NaCl, pH 7.4, 25 C; NMR: 25 mM MES pH 6.5, 150 mM NaCl, 25 C); conditions: protein: recombinant; tags: His6 removed by TEV; tag-free; chain copies: 2; blunt
[10] = target: SifR C84S (Streptococcus pneumoniae D39, UniProt A0A0H2ZNG7 1-145, C84S); experiment: fluorescence anisotropy; reduced, 2 mM TCEP; 25 mM Tris-HCl, 150 mM NaCl, 2 mM EDTA, 2 mM TCEP, pH 7.5, 25 C, ~10 nM labeled DNA (Fig S8: 50 mM Tris-HCl, 150 mM NaCl, pH 7.4, 25 C; NMR: 25 mM MES pH 6.5, 150 mM NaCl, 25 C); conditions: protein: recombinant; tags: His6 removed by TEV; tag-free; chain copies: 2; label: 5'-fluorescein; blunt
[11] = target: T4, SifR WT; experiment: as above; conditions: protein: recombinant; tags: His6 removed by TEV; tag-free; chain copies: 2; label: 5'-fluorescein; blunt
[12] = target: 15N-SifR WT (Streptococcus pneumoniae D39, UniProt A0A0H2ZNG7 1-145); experiment: NMR (1H,15N-TROSY); reduced; pH 6.5; 25 mM Tris-HCl, 150 mM NaCl, 2 mM EDTA, 2 mM TCEP, pH 7.5, 25 C, ~10 nM labeled DNA (Fig S8: 50 mM Tris-HCl, 150 mM NaCl, pH 7.4, 25 C; NMR: 25 mM MES pH 6.5, 150 mM NaCl, 25 C); conditions: protein: recombinant; tags: His6 removed by TEV; 15N-labeled; chain copies: 2

## CN1CC(O)C2=CC(=O)C(=O)C=C21 (stereo not drawn) [Adc, adrenochrome]
[1]
  LC-ESI-MS and tandem LC-MS/MS adduct; fluorescence anisotropy DNA release: Adc reacts more slowly to yield some monoadducted product

## Cc1cc2nc3c(=O)[nH]c(=O)nc-3n(C[C@H](O)[C@H](O)[C@H](O)COP(=O)(O)O)c2cc1C [FMN]
[2]
  ferric reductase, ferrozine capture at 562 nm: SpYhdA has significant activity and prefers FMN over FAD

## NC[C@H](O)c1ccc(O)c(O)c1 [NE, norepinephrine]
[3]
  UV-Vis and MS of ring-cleavage product: SpCatE can utilize each of these compounds as substrates

## Oc1ccccc1O [catechol]
[4]
  UV-Vis at 375 nm and MS of ring-cleavage product: we first monitored its activity using UV–Vis spectroscopy against freshly prepared catechol

## Streptococcus pneumoniae SifR (streptococcal IscR-like family transcriptional repressor), WT (natural protein)
[5]
  stoichiometry N: 2

## Streptococcus pneumoniae SifR C84S (natural protein)
[6]
  stoichiometry N: 2

## Streptococcus pneumoniae SifR C84S/C102S (natural protein)
[7]
  stoichiometry N: 2

## Streptococcus pneumoniae SifR C102S (natural protein)
[8]
  stoichiometry N: 2

B1: trxB O/P (dsDNA)
DNA 1: GAAAGAGTTAGAATAAAGATAGTTACAACAAG
DNA 2: CTTGTTGTAACTATCTTTATTCTAACTCTTTC
[9]
  Ka: 0.13 ± 0.04 10^8 M-1

B2: F-catE O/P (dsDNA)
DNA 1: TATAGTTGTAATAATAATAATTACAACGAG
DNA 2: CTCGTTGTAATTATTATTATTACAACTATA
modifications: fluorescein-dT at 5' position 1 of strand 1
[10]
  Ka: 4.8 ± 1.5 10^8 M-1
[11]
  Ka: 1 ± 0.2 10^8 M-1

B3: fre operator 23 bp (dsDNA)
DNA 1: AATGTAACAAATTTATTTACAAC
DNA 2: GTTGTAAATAAATTTGTTACATT
[12]
  binding result: binds

B4: ywnB O/P (dsDNA)
DNA 1: CAATTGCTGTAACTAAAATAATTACAACAAG
DNA 2: CTTGTTGTAATTATTTTAGTTACAGCAATTG
[9]
  Ka: 3.2 ± 0.4 10^8 M-1

B5: yhdA O/P (dsDNA)
DNA 1: GTTTTGTTGTAATATATTTTATAACAACGAG
DNA 2: CTCGTTGTTATAAAATATATTACAACAAAAC
[9]
  Ka: 0.23 ± 0.04 10^8 M-1

B6: fre O/P (dsDNA)
DNA 1: GATAAAATGTAACAAATTTATTTACAACAAATC
DNA 2: GATTTGTTGTAAATAAATTTGTTACATTTTATC
[9]
  Ka: 0.25 ± 0.05 10^8 M-1

From publication PMC9218516, “SifR is an Rrf2-family quinone sensor associated with catechol iron uptake in Streptococcus pneumoniae D39” (The Journal of Biological Chemistry, 2022)
